We go through two substances from patent publication US20040120954A1, “Regulation of mt1-mmp activity” (priority 2000, published 2004).

For assay [1], the target named is T1, MT1-MMP (Homo sapiens, UniProt P50281).
T1 construct: expressed in transfected cells
As to the kind of experiment: In situ gelatin degrading assay (DQ gelatin or Alexa488-conjugated gelatin). Type of assay: cell-based. The settings on record: COS1 cells co-transfected with MT1-MMP, Alexa488-labeled gelatin (FIG. 30). How it is done:
(§1) Two different in situ gelatin degrading assays were performed. One used DQ™ gelatin (Molecular Probes, Inc., OR, USA). DQ gelatin is a fluorescence-quenched gelatin substrate, and will fluoresce upon proteolytic cleavage. Glass cover slips were coated with 5% DQ™ gelatin in a 10 mg/ml unlabeled gelatin solution, and dried. Transfected cells were cultured on the cover slip in a humidified chamber for 16 hrs. The cells were then fixed with 3% para-formaldehyde and the degraded areas were visualized as those showing fluorescence.
(§2) The other assay used Alexa488-conjugated gelatin made with an Alexa488-labeling kit (Molecular Probes). The bottom surfaces of 4-well chamber slides (Nunc) were coated with Alexa488-conjugated gelatin according to the method of Yana, I. and Weiss, S. J., Mol. Biol. Cell, 11, 2387-2401, 2000. Transfected COS1 cells were cultured in the chamber slides for 16 hrs in a humidified culture incubator. The cells were then fixed with 3% para-formaldehyde in PBS, and the degraded area was analyzed under a fluorescence microscope. The degraded area was visualized as a dark, non-fluorescent area. Fluorescence images were analyzed using confocal microscopy (BioRad).
(§3) Next, to determine if MT1PEX-F affects the catalytic activity of MT1-MMP on the cell surface or not, tests for gelatin degrading activity and binding capacity to TIMP-2 were conducted using cells transfected in the same incubator. As shown in FIGS. 12 through 14, CHO-K1 cells were transfected with an expression vector for MT1-F, MT1-F/MT1PEX-F or MT1Cat-F, or a vector alone (Mock). The cells were then treated with trypsin, and separately seeded to: DQ™ gelatin-coated cover slips for testing the proteolytic activity (FIG. 13); and 24-well plates for TIMP-2 binding assay (FIG. 12) and for the activation of proMMP-2 (FIG. 14). Transfected cells on the DQ™ gelatin-coated cover slip as shown in FIG. 13 were incubated in a medium at 37° C. for 18 hrs, and the generated fluorescence was analyzed using confocal microscopy. Transfected cells on the 24-well plate as shown in FIG. 12 were incubated with 25 nM ^125I-labeled TIMP-2 in the presence or absence of BB-94 (50 μM) at 0° C. for 1 hr. MT1-MMP specific binding was calculated by subtracting the datum obtained in the presence of BB-94 (50 μM) from each datum derived from the corresponding experiments. Identically transfected cells on the 24-well plate as shown in FIG. 14 were subjected to the reaction with purified proMMP-2 in a serum-free medium at 37° C. for 18 hrs. The cells and culture supernatants were respectively subjected to Western blotting analysis using a monoclonal anti-FLAG M2 antibody, and gelatin zymography analysis. […] DQ™ gelatin is a fluorescence-quenched gelatin, which fluoresces upon proteolytic cleavage. […]

In a further assay the target is T2, proMMP-2 (Homo sapiens, UniProt P08253).
T2 construct: made in house; host or cells: HighFive insect cells infected with recombinant baculovirus; purified from culture supernatant
T2 sequence (P08253 30-660 limits assumed): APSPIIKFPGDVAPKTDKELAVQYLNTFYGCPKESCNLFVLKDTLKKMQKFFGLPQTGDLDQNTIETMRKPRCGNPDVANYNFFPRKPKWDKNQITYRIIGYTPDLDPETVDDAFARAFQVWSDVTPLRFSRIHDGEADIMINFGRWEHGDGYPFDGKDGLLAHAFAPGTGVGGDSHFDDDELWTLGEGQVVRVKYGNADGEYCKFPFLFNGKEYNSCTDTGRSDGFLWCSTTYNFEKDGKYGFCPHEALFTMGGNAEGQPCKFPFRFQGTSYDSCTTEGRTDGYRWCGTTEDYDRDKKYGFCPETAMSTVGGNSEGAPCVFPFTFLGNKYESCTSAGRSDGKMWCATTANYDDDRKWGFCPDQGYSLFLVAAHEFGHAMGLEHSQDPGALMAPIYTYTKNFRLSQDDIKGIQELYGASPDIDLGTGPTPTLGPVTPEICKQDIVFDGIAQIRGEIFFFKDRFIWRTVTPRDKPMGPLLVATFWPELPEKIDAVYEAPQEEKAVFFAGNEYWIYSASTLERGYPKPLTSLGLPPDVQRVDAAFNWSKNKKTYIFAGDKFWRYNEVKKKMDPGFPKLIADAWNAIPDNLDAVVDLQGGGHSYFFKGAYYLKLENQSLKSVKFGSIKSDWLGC
As to the kind of experiment: ProMMP-2 binding assay on transfected COS1 cells. The following applies: COS1 cells co-transfected with MT1-MMP (FIG. 29). Type of assay: cell-based. How it is done: Transfected COS1 cells were cultured in a 24-well plate (0.2×10^4/well). Forty-eight hours after transfection, the cells were washed three times with serum-free DMEM, and incubated with purified proMMP-2 (2 μg/ml) in the serum-free DMEM at 25° C. for 1 hr. The cells were then washed three times with serum-free DMEM containing 5% dimethyl sulfoxide (DMSO) to remove free proMMP-2, and lysed in 50 μl of a non-reducing SDS-loading buffer. MMP-2 bound to the cells was analyzed by gelatin zymography.

Assay [2] concerns MT1-MMP. As to the kind of experiment: In situ gelatin degrading assay (DQ gelatin or Alexa488-conjugated gelatin). It counts as cell-based, human. The settings on record: DQ gelatin; CHO-K1 (FIG. 13) or COS1 cells (FIG. 22). As to the method:
as §1, §2, §3

For “MT1PEX-F: Catalytic domain-deleted FLAG-tagged MT1-MMP (Δ Tyr112-Pro312), expressed by transfection”, the “effect on the proteolytic activity of MT1-MMP on the cell surface” value with MT1-MMP [1] is “did not affect the proteolytic activity”. For the same substance, in the assay with proMMP-2, the “effect on proMMP-2 binding to the cell surface” value is listed as “not affected”.

As to “MT1Cat-F: PEX-deleted FLAG-tagged MT1-MMP (Δ Ile318-Gly535)”, the “gelatin degrading (proteolytic) activity of cells expressing the mutant” value with MT1-MMP [2] is “exhibited the gelatin degrading activity”.
